Data on eleven molecules can be found in patent USRE44022 (COMMISSARIAT A L ENERGIE ATOMIQUE, dated 2013).

B1: P23 (peptide)
peptide: cyclo([dY]PRIKPHQ)
SMILES: CC[C@H](C)[C@@H]1NC(=O)[C@H](CCCNC(=N)N)NC(=O)[C@@H]2CCCN2C(=O)[C@@H](Cc2ccc(O)cc2)NC(=O)[C@H](CCC(N)=O)NC(=O)[C@H](Cc2c[nH]cn2)NC(=O)[C@@H]2CCCN2C(=O)[C@H](CCCCN)NC1=O
B2: P11 (peptide)
peptide: cyclo([dF]PQIMRIKPHQGQHIGE)
SMILES: CC[C@H](C)[C@@H]1NC(=O)[C@H](Cc2c[nH]cn2)NC(=O)[C@H](CCC(N)=O)NC(=O)CNC(=O)[C@H](CCC(N)=O)NC(=O)[C@H](Cc2c[nH]cn2)NC(=O)[C@@H]2CCCN2C(=O)[C@H](CCCCN)NC(=O)[C@H]([C@@H](C)CC)NC(=O)[C@H](CCCNC(=N)N)NC(=O)[C@H](CCSC)NC(=O)[C@H]([C@@H](C)CC)NC(=O)[C@H](CCC(N)=O)NC(=O)[C@@H]2CCCN2C(=O)[C@@H](Cc2ccccc2)NC(=O)[C@H](CCC(=O)O)NC(=O)CNC1=O
notes: Cyclopeptide; 6); also called P11 (cyclic) peptide
B3: P19 (peptide)
peptide: QIMRIKPHQGQHIGE
modifications: cyclic (cyclo, cyclised on the solid phase, method B)
notes: Cyclopeptide
B4: P9 (peptide)
peptide: PRIKPHQGQH
modifications: cyclic (cyclo, ends of the linear peptide coupled)
notes: Cyclopeptide
B5: P12 (peptide)
peptide: GQIMRIKPHQGQHIGE
modifications: cyclic (cyclo, ends of the linear peptide coupled)
notes: Cyclopeptide
B6: P24 (peptide)
peptide: GRIKPH
modifications: cyclic (cyclo, ends of the linear peptide coupled)
notes: Cyclopeptide; also called cyclo(Gly-Arg-Ile-Lys-Pro-His)
B7: P17 (peptide)
peptide: PRIKPHQG
modifications: cyclic (cyclo, ends of the linear peptide coupled)
notes: Cyclopeptide
B8: P8 (peptide)
peptide: GRIKPHQGH
modifications: cyclic (cyclo, ends of the linear peptide coupled)
notes: Cyclopeptide
B9: P16 (peptide)
peptide: RIKPHQG
modifications: cyclic (cyclo, ends of the linear peptide coupled)
notes: Cyclopeptide; also called cyclo(Arg-Ile-Lys-Pro-His-Gln-Gly)
B10: P20 (peptide)
peptide: cyclo([dF]PQIMRIKPHQGQHIG)
SMILES: CC[C@H](C)[C@@H]1NC(=O)[C@H](Cc2c[nH]cn2)NC(=O)[C@H](CCC(N)=O)NC(=O)CNC(=O)[C@H](CCC(N)=O)NC(=O)[C@H](Cc2c[nH]cn2)NC(=O)[C@@H]2CCCN2C(=O)[C@H](CCCCN)NC(=O)[C@H]([C@@H](C)CC)NC(=O)[C@H](CCCNC(=N)N)NC(=O)[C@H](CCSC)NC(=O)[C@H]([C@@H](C)CC)NC(=O)[C@H](CCC(N)=O)NC(=O)[C@@H]2CCCN2C(=O)[C@@H](Cc2ccccc2)NC(=O)CNC1=O
notes: Cyclopeptide
B11: P21 (peptide)
peptide: cyclo([dF]PIMRIKPHQGQHI)
SMILES: CC[C@H](C)[C@@H]1NC(=O)[C@H](CCCNC(=N)N)NC(=O)[C@H](CCSC)NC(=O)[C@H]([C@@H](C)CC)NC(=O)[C@@H]2CCCN2C(=O)[C@@H](Cc2ccccc2)NC(=O)[C@H]([C@@H](C)CC)NC(=O)[C@H](Cc2c[nH]cn2)NC(=O)[C@H](CCC(N)=O)NC(=O)CNC(=O)[C@H](CCC(N)=O)NC(=O)[C@H](Cc2c[nH]cn2)NC(=O)[C@@H]2CCCN2C(=O)[C@H](CCCCN)NC1=O
notes: Cyclopeptide

Square brackets hold non-standard residues; d marks the D form.

The target of one experiment is KDR receptor (VEGFR-2) (UniProt P35968). In words: displacement of 125I-VEGF from CHOm VEGFR2 cells.
Chain of KDR receptor (VEGFR-2) (UniProt P35968) (P35968 20-1356 limits assumed): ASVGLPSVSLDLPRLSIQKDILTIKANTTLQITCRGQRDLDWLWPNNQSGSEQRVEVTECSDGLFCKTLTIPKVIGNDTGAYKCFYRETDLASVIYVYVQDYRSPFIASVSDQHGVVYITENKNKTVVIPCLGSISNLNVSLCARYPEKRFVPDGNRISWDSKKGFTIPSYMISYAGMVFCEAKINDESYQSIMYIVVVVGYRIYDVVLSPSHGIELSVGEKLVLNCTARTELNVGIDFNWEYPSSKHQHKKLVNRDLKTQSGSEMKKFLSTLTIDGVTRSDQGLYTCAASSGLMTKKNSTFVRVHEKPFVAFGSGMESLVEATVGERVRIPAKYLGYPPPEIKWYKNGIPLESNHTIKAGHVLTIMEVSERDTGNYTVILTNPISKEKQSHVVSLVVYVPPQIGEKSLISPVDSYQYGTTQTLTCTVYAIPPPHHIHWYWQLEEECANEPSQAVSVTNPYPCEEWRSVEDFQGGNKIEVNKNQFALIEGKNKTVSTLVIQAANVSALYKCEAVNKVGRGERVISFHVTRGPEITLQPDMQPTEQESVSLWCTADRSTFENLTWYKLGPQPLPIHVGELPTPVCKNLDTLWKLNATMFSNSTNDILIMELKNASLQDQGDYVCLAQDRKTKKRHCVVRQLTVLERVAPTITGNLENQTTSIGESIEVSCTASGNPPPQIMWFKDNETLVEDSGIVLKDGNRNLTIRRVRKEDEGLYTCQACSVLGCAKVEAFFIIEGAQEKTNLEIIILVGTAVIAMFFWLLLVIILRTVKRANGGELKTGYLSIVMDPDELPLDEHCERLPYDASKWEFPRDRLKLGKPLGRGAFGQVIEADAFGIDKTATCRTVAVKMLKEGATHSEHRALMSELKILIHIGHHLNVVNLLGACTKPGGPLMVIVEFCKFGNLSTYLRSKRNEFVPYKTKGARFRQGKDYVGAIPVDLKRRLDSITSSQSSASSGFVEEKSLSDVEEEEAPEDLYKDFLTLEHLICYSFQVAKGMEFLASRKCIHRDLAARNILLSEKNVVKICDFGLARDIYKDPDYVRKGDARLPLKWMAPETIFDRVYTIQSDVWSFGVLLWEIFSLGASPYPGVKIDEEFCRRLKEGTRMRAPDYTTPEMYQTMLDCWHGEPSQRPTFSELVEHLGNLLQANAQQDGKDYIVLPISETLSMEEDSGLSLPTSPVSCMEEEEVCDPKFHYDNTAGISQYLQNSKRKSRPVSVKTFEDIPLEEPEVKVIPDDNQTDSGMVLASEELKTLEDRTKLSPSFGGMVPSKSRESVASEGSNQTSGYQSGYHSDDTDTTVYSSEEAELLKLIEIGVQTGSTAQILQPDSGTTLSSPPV
For the molecule B1, the IC50 (usually the concentration that inhibits the measured activity by half) came to 8 µM.

For a further experiment, the target named is T1, KDR receptor (VEGFR-2) (UniProt P35968 20-1356, limits assumed). The experiment is described as follows: cell-based or functional assay.
T1 sequence (P35968 20-1356 limits assumed): as above
For the molecule B2, the “Migration (IC50)” value stood at 30 µM and the “Proliferation (IC50)” value was 7 µM.

The next experiment addresses T1, KDR receptor (VEGFR-2). In words: displacement of 125I-VEGF from CHOm VEGFR2 cells. For orientation: Displacement assays read how much labelled ligand stays bound in the presence of the test substance.
In turn, B3 registered a half-inhibitory concentration (IC50) of 5 µM.
The same measure, in the same setting: the value for B4 was 300 µM; that for B2 was 2 µM; that for B5 was 300 µM.
The same measure, in the same setting: the value for B6 was 8 µM; that for B7 was 10 µM; that for B8 was 200 µM.
Same read-out and setting: the value for B9 was 32 µM; that for B10 was 10 µM.
In turn, B11 showed a half-maximal inhibitory concentration (IC50) of 200 µM. Compared with the last molecule, the IC50 is about 20-fold higher.
